Measurements as given in paper PMC11573620 (Molecular Therapy, 2024).

Biological target: T1, human CD155 extracellular domain fused to mouse Fc (human, UniProt P15151 21-343)
T1 sequence (looked up): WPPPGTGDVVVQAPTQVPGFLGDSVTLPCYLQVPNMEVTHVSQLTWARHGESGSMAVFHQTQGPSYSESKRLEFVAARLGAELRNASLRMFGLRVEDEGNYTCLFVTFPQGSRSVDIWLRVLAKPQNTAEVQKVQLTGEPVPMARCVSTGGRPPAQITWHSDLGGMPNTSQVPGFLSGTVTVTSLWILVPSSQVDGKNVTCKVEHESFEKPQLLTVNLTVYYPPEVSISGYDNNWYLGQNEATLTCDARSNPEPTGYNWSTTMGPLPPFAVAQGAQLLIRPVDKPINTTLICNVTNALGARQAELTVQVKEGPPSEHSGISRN
Assay: ELISA

B1: human TIGIT extracellular domain, biotinylated (domain or fragment, UniProt Q495A1 22-141, looked up)
chain: MMTGTIETTGNISAEKGGSIILQCHLSSTTAQVTQVNWEQQDQLLAICNADLGWHISPSFKDRVAPGPGLGLTLQSLTVNDTGEYFCIYHTYPDGTYTGRIFLEVLESSVAEHGARFQIP
modifications: biotin
Question: Does B1 bind?
Answer: binds
